Experimental findings from patent publication US20200231681A1 (CHONG KUN DANG PHARMACEUTICAL, published 2020) are described below.

Assay [1] addresses T1, human c-Met ECD (ACROBiosystems, MET-H5227) (human, UniProt P08581 25-932).
T1 construct: extracellular domain; Bought protein
In words: SPR (BIAcore), antibody captured by anti-human IgG Fc, antigen as analyte, 1:1 Langmuir. The method, then: (§1) The antibodies were diluted in HBS-EP buffer (0.01 M HEPES pH 7.4, 0.15 M NaCl, 3 mM EDTA and 0.005% (v/v) Surfactant P20) at a concentration of 1-2 μg/ml, after which the resulting antibodies were injected into a CM5 chip with an anti-human Ig Fc fixed thereto at a flow rate of 30 μl/min for 10-120 seconds, and then captured in a range of 150-200 RU. Each antigen was used after being diluted at 10, 5, 2.5, 1.25, 0.625, 0.3125 and 0.15625 nM, after which the resulting antigens were sequentially injected from a lower concentration. Then, the resulting antigens were injected at a flow rate of 30 μl/min for 5 minutes to carry out binding, after which a running buffer was injected thereinto for 10-15 minutes to carry out a dissociation. 15 μl of 10 mM Glycine-HCl (pH 1.5) was used to revive the chip.

Assay [2] has as its target T2, mouse EGFR (SiNo. Biological Inc, 51091-M08H) (mouse, UniProt Q01279 25-647).
T2 construct: extracellular domain
In words: ELISA, antigen coated at 2 µg/ml, antibody 6.4 pM to 100 nM, anti-human IgG F(ab')2-HRP, TMB, O.D. at 450 nm [panel Mouse EGFR]. The method, then: (§2) Particularly, mouse c-Met (SiNo. Biological Inc, 50622-M08H), cynomolgus monkey c-Met (SiNo. Biological Inc, 90304-CO8H), human c-Met (R&D Systems, 358-MT), mouse EGFR (SiNo. Biological Inc, 51091-M08H), cynomolgus monkey EGFR (SiNo. Biological, 90285-008B) and human EGFR (Abcam, 155639) antigens were all divided into a 96-well plate at a concentration of 2 μg/ml, after which the resulting plate was reacted at 4° C. overnight.
(§3) Color development was made by using TMB (Sigma, T4444) solution, wherein its value was measured at an optical density of 450 nm and its ELISA results are shown in FIG. 9.

Assay [3] addresses T3, cynomolgus monkey c-Met ECD (SiNo. Biological, 90304-CO8H) (cynomolgus monkey, UniProt A0A2K5UM36 25-932).
T3 construct: not shown: The vendor's tag
The experiment in a line: SPR (BIAcore), antibody captured by anti-human IgG Fc, antigen as analyte, 1:1 Langmuir. The method, then: as §1

Assay [4] concerns the target T4, human EGFR ECD strep (ACROBiosystems, EGR-H5285) (human, UniProt P00533 25-645).
T4 construct: extracellular domain; Bought protein
Described as above. The method, then: as §1

In assay [5] the target is T5, cynomolgus monkey EGFR ECD (SiNo. Biological, 90285-008B) (cynomolgus monkey).
T5 construct: extracellular domain
The assay is described as above. The method, then: as §1

In assay [6] the target is T6, mouse c-Met (SiNo. Biological Inc, 50622-M08H) (mouse, UniProt P16056 25-931).
T6 construct: extracellular domain
In words: ELISA, antigen coated at 2 µg/ml, antibody 6.4 pM to 100 nM, anti-human IgG F(ab')2-HRP, TMB, O.D. at 450 nm [panel Mouse cMet]. The method, then:
as §2, §3
A general note: An ELISA detects its analyte on a solid surface through an enzyme-linked reagent.

B1: hu8C4 AH71 (antibody, V domains shown)
VH: EVQLVESGGGLVQPGGSLRLSCAASGYTFSDYYINWVRQAPGKGLEWIGEIFPGWGNTHFSARFKGRATLSADKSKNTAYLQMNSLRAEDTAVYYCAGQDYGFLYWGQGTLVTVSS
VL: DIQMTQSPSSLSASVGDRVTITCGASENIYGALNWYQQKPGKAPKLLIYGATNLADGVPSRFSGSGSGRDFTFTISSLQPEDIATYYCQNVLSSPYTFGQGTKVEIK
Turning to B1, in assay [1], the Kd is 0.0999 nM, the koff was 8.3e-05 s⁻¹ and the kon worked out at 831000 M⁻¹ s⁻¹.

B2: hu8C4 × Vectibix scFv bispecific antibody (bispecific antibody, human IgG2)
heavy: not shown
VL: B1 VL
As for B2, the binding result in assay [2] and in assay [6] was “no binding (tested: 100 nM)” each time. The Kd is 0.434 nM in assay [3], 1.62 nM in assay [4], 0.894 nM in assay [5] and 0.278 nM in assay [1]. The koff is 0.000337 s⁻¹ in assay [3], 0.000126 s⁻¹ in assay [4], 0.000127 s⁻¹ in assay [5] and 0.000204 s⁻¹ in assay [1]. In addition, the kon in assay [3] was 777000 M⁻¹ s⁻¹; in assay [4], 77800 M⁻¹ s⁻¹; in assay [5] it was 142000 M⁻¹ s⁻¹; in assay [1], 734000 M⁻¹ s⁻¹.

A word on the Kd: it is the free concentration of one partner at which half of the binding sites on the other are occupied at equilibrium, for simple one-to-one binding. One may read the koff as the first-order rate constant of dissociation. One may read the kon as the rate constant with which the complex forms.
